The results in this text go back to patent publication US20210246166A1 (Bayer, published 2021).

Assay [1] addresses Recombinant human MASP2 enzyme (fragment corresponding to amino acids 297-686, C-terminal His Tag) (human, UniProt O00187 297-686). Kind of assay: cell-based or functional assay.
Assay [2] addresses T1, Recombinant human MASP1 enzyme (fragment corresponding to amino acids 297-699, C-terminal His Tag) (human, UniProt P48740 297-699).
T1 sequence: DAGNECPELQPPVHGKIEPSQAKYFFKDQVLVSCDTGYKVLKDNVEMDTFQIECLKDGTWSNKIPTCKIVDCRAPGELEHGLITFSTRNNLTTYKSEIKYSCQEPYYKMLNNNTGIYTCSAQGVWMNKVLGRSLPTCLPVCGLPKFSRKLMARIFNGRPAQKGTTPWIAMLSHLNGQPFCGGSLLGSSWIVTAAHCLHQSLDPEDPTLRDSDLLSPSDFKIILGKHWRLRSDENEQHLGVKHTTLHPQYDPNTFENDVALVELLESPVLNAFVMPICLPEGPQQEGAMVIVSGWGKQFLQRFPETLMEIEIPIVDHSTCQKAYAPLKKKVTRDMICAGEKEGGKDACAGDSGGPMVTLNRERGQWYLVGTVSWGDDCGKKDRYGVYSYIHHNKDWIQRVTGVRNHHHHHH
Briefly: cell-based or functional assay.

Numbered stars: 1 amine (or outer) side, 2 acyl side, 3 side chain; on linkers, the order of the positions; unused ones are H or OH. Bridge positions count the residues as written; N and C are the ends. Square brackets hold non-standard residues; d marks the D form. Primed or numbered codes have the meaning given here. Ends that are not written are not given here. * marks the point of attachment. X13 = (2S)‑2‑amino‑3‑(1-methylcyclopropyl)propanoic acid, CC1(C[C@H](N[*:1])C(=O)[*:2])CC1; Tranexamic″ = tranexamic acid, NC[C@H]1CC[C@@H](C(=O)*)CC1; Oic = O=C(O)[C@@H]1C[C@@H]2CCCC[C@@H]2N1; Cyclopropylacetic acid = O=C(CC1CC1)*; NMeI = CC[C@H](C)[C@H](NC)C(=O)O; tBuAla = CC(C)(C)C[C@H](N)C(=O)O; Chg = N[C@H](C(=O)O)C1CCCCC1; Pen = CC(C)(S)[C@H](N)C(=O)O; NMeC = CN[C@@H](CS)C(=O)O; Sar = CNCC(=O)O

Sequence of Recombinant human MASP2 enzyme (fragment corresponding to amino acids 297-686, C-terminal His Tag) (O00187 other isoform, or with tags, fused parts or gaps limits assumed): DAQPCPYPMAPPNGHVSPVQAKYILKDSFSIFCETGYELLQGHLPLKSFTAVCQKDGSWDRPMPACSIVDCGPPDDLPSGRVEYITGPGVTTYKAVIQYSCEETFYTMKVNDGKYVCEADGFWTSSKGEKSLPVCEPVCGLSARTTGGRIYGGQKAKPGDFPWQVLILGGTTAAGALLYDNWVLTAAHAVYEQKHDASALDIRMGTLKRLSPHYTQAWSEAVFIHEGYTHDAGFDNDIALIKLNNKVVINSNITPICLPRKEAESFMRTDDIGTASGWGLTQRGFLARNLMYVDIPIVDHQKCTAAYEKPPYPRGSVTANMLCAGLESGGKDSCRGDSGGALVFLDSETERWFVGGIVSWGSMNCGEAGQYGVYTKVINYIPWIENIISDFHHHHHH

B1: AIC+SRS-((tBu)A)-P-(Oic)-I-((N-Me)C)+IPD-NH2 (peptide)
peptide: AICSRS[tBuAla]P[Oic]I[NMeC]IPD-NH2
modifications: disulfide 3-11; N-terminus assumed
SMILES: CC[C@H](C)[C@H](NC(=O)[C@H](C)N)C(=O)N[C@H]1CSSC[C@@H](C(=O)N[C@H](C(=O)N2CCC[C@H]2C(=O)N[C@@H](CC(=O)O)C(N)=O)[C@@H](C)CC)N(C)C(=O)[C@H]([C@@H](C)CC)NC(=O)[C@@H]2C[C@@H]3CCCC[C@@H]3N2C(=O)[C@@H]2CCCN2C(=O)[C@H](CC(C)(C)C)NC(=O)[C@H](CO)NC(=O)[C@H](CCCNC(=N)N)NC(=O)[C@H](CO)NC1=O
On to B1, for which the “human MASP2 IC50” value in assay [1] was found to be 370 nM. In addition, the “human MASP1 IC50” value in assay [2] amounted to 12 nM.

B2: (Cyclopropylacetic acid)-IC+SRS-((tBu)A)-PPI-((N-Me)C)+I-NH2 (peptide)
peptide: {Cyclopropylacetic acid}-ICSRS[tBuAla]PPI[NMeC]I-NH2
modifications: disulfide 2-10
SMILES: CC[C@H](C)[C@H](NC(=O)[C@@H]1CSSC[C@H](NC(=O)[C@@H](NC(=O)CC2CC2)[C@@H](C)CC)C(=O)N[C@@H](CO)C(=O)N[C@@H](CCCNC(=N)N)C(=O)N[C@@H](CO)C(=O)N[C@@H](CC(C)(C)C)C(=O)N2CCC[C@H]2C(=O)N2CCC[C@H]2C(=O)N[C@@H]([C@@H](C)CC)C(=O)N1C)C(N)=O
For the molecule B2, the “human MASP2 IC50” value in assay [1] is 55 nM. Moreover, the “human MASP1 IC50” value in assay [2] was 13 nM.

B3: AIC+SRSLP-(Oic)-(Chg)-C+IPD-NH2 (peptide)
peptide: AICSRSLP[Oic][Chg]CIPD-NH2
modifications: disulfide 3-11; N-terminus assumed
SMILES: CC[C@H](C)[C@H](NC(=O)[C@H](C)N)C(=O)N[C@H]1CSSC[C@@H](C(=O)N[C@H](C(=O)N2CCC[C@H]2C(=O)N[C@@H](CC(=O)O)C(N)=O)[C@@H](C)CC)NC(=O)[C@H](C2CCCCC2)NC(=O)[C@@H]2C[C@@H]3CCCC[C@@H]3N2C(=O)[C@@H]2CCCN2C(=O)[C@H](CC(C)C)NC(=O)[C@H](CO)NC(=O)[C@H](CCCNC(=N)N)NC(=O)[C@H](CO)NC1=O
Regarding B3, the “human MASP2 IC50” value in assay [1] was 290 nM. Also, the “human MASP1 IC50” value in assay [2] came out at 12 nM.

B4: G-((N-Me)I)-C+SRSLPPIC+IPD-OH (peptide)
peptide: G[NMeI]CSRSLPPICIPD-OH
modifications: disulfide 3-11; N-terminus assumed
SMILES: CC[C@H](C)[C@@H]1NC(=O)[C@@H]2CCCN2C(=O)[C@@H]2CCCN2C(=O)[C@H](CC(C)C)NC(=O)[C@H](CO)NC(=O)[C@H](CCCNC(=N)N)NC(=O)[C@H](CO)NC(=O)[C@@H](NC(=O)[C@H]([C@@H](C)CC)N(C)C(=O)CN)CSSC[C@@H](C(=O)N[C@H](C(=O)N2CCC[C@H]2C(=O)N[C@@H](CC(=O)O)C(=O)O)[C@@H](C)CC)NC1=O
Turning to B4, in assay [1], the “human MASP2 IC50” value was found to be 1100 nM. For the same molecule, the “human MASP1 IC50” value in assay [2] was determined as 14 nM.

B5: (Tranexamic)-IC+SRS-((tBu)A)-PPI-(Pen)+IP-NH2 (peptide)
peptide: {Tranexamic″}-ICSRS[tBuAla]PPI[Pen]IP-NH2
modifications: disulfide 2-10
SMILES: CC[C@H](C)[C@@H]1NC(=O)[C@@H]2CCCN2C(=O)[C@@H]2CCCN2C(=O)[C@H](CC(C)(C)C)NC(=O)[C@H](CO)NC(=O)[C@H](CCCNC(=N)N)NC(=O)[C@H](CO)NC(=O)[C@@H](NC(=O)[C@@H](NC(=O)[C@H]2CC[C@@H](CN)CC2)[C@@H](C)CC)CSSC(C)(C)[C@@H](C(=O)N[C@H](C(=O)N2CCC[C@H]2C(N)=O)[C@@H](C)CC)NC1=O
With B5, in assay [1], the “human MASP2 IC50” value was found to be 17 nM. Also, in assay [2], the “human MASP1 IC50” value was found to be 12 nM.

B6: ((N-Me)G)-IC+SRS-((2S)-2-amino-3-(1-methylcyclopropyl)propanoic acid)-P-(Oic)-I-(Pen)+IP-NH2 (peptide)
peptide: [Sar]ICSRS[X13]P[Oic]I[Pen]IP-NH2
modifications: disulfide 3-11; N-terminus assumed
SMILES: CC[C@H](C)[C@H](NC(=O)CNC)C(=O)N[C@H]1CSSC(C)(C)[C@@H](C(=O)N[C@H](C(=O)N2CCC[C@H]2C(N)=O)[C@@H](C)CC)NC(=O)[C@H]([C@@H](C)CC)NC(=O)[C@@H]2C[C@@H]3CCCC[C@@H]3N2C(=O)[C@@H]2CCCN2C(=O)[C@H](CC2(C)CC2)NC(=O)[C@H](CO)NC(=O)[C@H](CCCNC(=N)N)NC(=O)[C@H](CO)NC1=O
B6: the “human MASP2 IC50” value in assay [1] was 57 nM. Moreover, in assay [2], the “human MASP1 IC50” value turned out to be 11 nM.
